Test results as given in publication PMC11511825.

Target: FUS-eGFP (C-terminally eGFP-tagged Fused in Sarcoma) (UniProt P35637)
Experiment: FRET or BRET

Substance: FUS-eGFP (C-terminally eGFP-tagged Fused in Sarcoma) (from UniProt P35637 1-526) (natural protein)
- apparent homoFRET efficiency (E Homo): 0.7
- steady-state fluorescence anisotropy in droplets (loss by homoFRET): 0.08
